From PMC5726764 (Biotechnology and bioengineering, 2017)
Like-named read-outs stand apart in the source and are kept apart here.

Columns and labels:
[1] = biological target: T1, dodecapeptide antigen DVFYPYPYASGS (as used in biolayer interferometry) (synthetic peptide); experiment: BLI
T1 chain: DVFYPYPYASGS

[2] = biological target: scFv-1 (120_6290_1), de novo designed single-chain antibody; experiment: ITC
[3] = biological target: scFv-2D10, single-chain antibody of mAb 2D10; experiment: ITC
[4] = biological target: scFv-2 (120_15439_2), de novo designed single-chain antibody; experiment: BLI
[5] = biological target: scFv-2 (120_15439_2), de novo designed single-chain antibody; experiment: BLI; remark: listed apart in the source
[6] = biological target: scFv-4 (140_15899_5), de novo designed single-chain antibody; experiment: BLI
[7] = biological target: scFv-1 (120_6290_1), de novo designed single-chain antibody; experiment: BLI
[8] = biological target: scFv-2 (120_15439_2), de novo designed single-chain antibody; experiment: BLI; remark: listed apart in the source
[9] = biological target: scFv-2 (120_15439_2), de novo designed single-chain antibody; experiment: BLI; remark: listed apart in the source

B1: scFv-2D10, single-chain antibody of mAb 2D10 (scFv, V domains shown)
VH: EIQLQQSGPELVKPGASVKISCKASGYSFTDYIMLWVKQSHGKSLEWIGNINPYYGSTSYNLKFKGKATLTVDKSSSTAYMQLNSLTSEDSAVYYCARKNYYGSSLDYWGQGTTLTVSS
VL: DVVMTQTPFSLPVSLGDQASISCRSSQSLVHSNGNTYLHWYLQKPGQSPKLLIYKVSNRFSGVPDRFSGSGSGTDFTLKISRVEAEDLGVYFCSQSTHVPYTFGGGTKLEIK
- Kd [1]: 0.0038 µM
- kon [1]: 206000 M⁻¹ s⁻¹

Binder: DVFYPYPYASGS [dodecapeptide antigen …, not conjugated to BSA (as used in ITC)]
- stoichiometry N [2]: 1
- Kd [3]: 0.001 µM
- stoichiometry N [3]: 1

Binder: DVFYPYPYASGS [dodecapeptide antigen … (as used in biolayer interferometry)]
- Kd [4]: 0.0215 µM
- Kd [5]: 0.00255 µM
- Kd [6]: 0.0238 µM
- kobs [6]: 0.0039 s⁻¹
- koff [6]: 0.00171 s⁻¹
- Kd [7]: 0.0089 µM
- kobs [7]: 0.0033 s⁻¹
- Kd [8]: 0.0144 µM
- kobs [8]: 0.0041 s⁻¹
- koff [8]: 0.00132 s⁻¹
- Kd [9]: 0.0175 µM
